B1: Caveolin-3 (Mus musculus), P51637 (parent)
chain: MMTEEHTDLEARIIKDIHCKEIDLVNRDPKNINEDIVKVDFEDVIAEPEGTYSFDGVWKVSFTTFTVSKYWCYRLLSTLLGVPLALLWGFLFACISFCHIWAVVPCIKSYLIEIQCISHIYSLCIRTFCNPLFAALGQVCSNIKVVLRREG
partner: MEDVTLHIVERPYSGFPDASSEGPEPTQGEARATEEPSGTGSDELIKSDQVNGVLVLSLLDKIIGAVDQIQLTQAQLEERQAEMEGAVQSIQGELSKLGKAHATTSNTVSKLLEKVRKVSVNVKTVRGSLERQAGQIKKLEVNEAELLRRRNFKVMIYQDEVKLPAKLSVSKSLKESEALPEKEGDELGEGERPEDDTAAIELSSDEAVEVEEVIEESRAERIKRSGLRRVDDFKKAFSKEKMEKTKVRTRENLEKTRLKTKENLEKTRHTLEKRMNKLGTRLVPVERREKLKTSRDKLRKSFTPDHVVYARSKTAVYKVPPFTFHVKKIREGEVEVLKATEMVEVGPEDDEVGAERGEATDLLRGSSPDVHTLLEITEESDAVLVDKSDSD

Variants of: B1
Settings: with cavn1_mouse Cavin1, O54724

effect of a mutation on the interaction | Variant
decreasing interaction | P105L

From IntAct's records for PubMed 18191225
